The text below walks through data of patent publication US20260146089A1 (published 2026).

First the molecules themselves.
B1: 08B12 (antibody, V domains shown)
VH: EVQVVESGGGLVKPGGSLRLSCVASGFTFKKYNMNWVRQAPGKGLEWVSSISSSSTYIYYADSVKGRFTISRDNAKNSLNLQMNSLRAEDTAVYYCAGGGYFDYWGQGTLVTVSS
B2: 13D02 (antibody, V domains shown)
VH: B1 VH with V4L, V23A, K30S, K31R, Y32F, A40T, S54R, T56S, N77K, N80Y
VL: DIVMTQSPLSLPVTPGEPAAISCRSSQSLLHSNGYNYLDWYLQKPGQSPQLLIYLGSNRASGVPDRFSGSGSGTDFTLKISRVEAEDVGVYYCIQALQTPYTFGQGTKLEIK
B3: 11A10 (antibody, V domains shown)
VH: EVQLVESGRGLVQPGGSLRLSCAASGFTFSSYWMSWVRQAPGKGLEWVANIKEDGSEKYYVDSVKGRFTISRDNAKNSLYLQMNSLRAEDTAVYYCARERREGYFDYWGQGTLVTVSS
VL: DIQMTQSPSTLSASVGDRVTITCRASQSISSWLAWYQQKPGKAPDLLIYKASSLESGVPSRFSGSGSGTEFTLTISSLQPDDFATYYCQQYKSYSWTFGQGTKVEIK
B4: 12C08 antibody (antibody, V domains shown)
VH: B3 VH with V2E, R9G, L20F, A23E, A24V, S30R, Y107Q
VL: DIQMTQSPSTLSAFVGDRVTITCRASQSIGSWLAWYQQKPGKAPDLLIYKASSLESGVPSRFSGSGSGTEFTLTISSLQPDDFATYYCQQYKSYSWTFGQGTKVEIK
B5: 08G12 (antibody, V domains shown)
VH: B3 VH with R9G, P14S, S31R, Y32F, S35T, A75T
VL: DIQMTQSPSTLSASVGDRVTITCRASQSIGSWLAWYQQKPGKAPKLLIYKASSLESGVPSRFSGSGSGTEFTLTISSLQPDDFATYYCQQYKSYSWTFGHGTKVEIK
B6: 07B09 (antibody, V domains shown)
VH: B3 VH with R9G, S35T, I51M, K52R, E53K, Q82H, R101S, E102T, T115I
VL: B4 VL with F14S, S28R, G30S, S31T, P40A, D45K, S76R, Q79E, K92I, S95T
B7: 06G07 A04 (antibody, V domains shown)
VH: B3 VH with R9G, Y32F, Y80F, E102T
VL: B4 VL with P8S, F14S, Y36F, D45K, T85I
B8: 11B11 (antibody, V domains shown)
VH: B3 VH with R9G, S35T, L81V, V93I
VL: B4 VL with T10I, F14S, V19A, S28R, G30S, S31T, Y36F, D45K
B9: 13E03 antibody (antibody, V domains shown)
VH: B3 VH with V2I, R9G, A40T, Y60H, F68Y, N84S, E89D, L113V, V116A
VL: B4 VL with F14S, S31R, S65G, I106V
B10: 01B08 B01 (antibody, V domains shown)
VH: QVQLVQSGAEVKKPGASVKVSCKAAGYTFTGYYMHWVRQAPGQGLEWMGWINPYRSGTNFAQKFQDRVTMTRDTSISTAYMELSSLSSDDTAIYYCARGAGTTFYNAFDIWGQGTMVTVSS
VL: DIQMTQSPSAMSASVGDRVTITCRASQGINNYLAWFQQKPGKVPKRLIYAASSLQSGVPSRFSGSGSGTEFTLTISSLQPEDFATYYCLQHNRYPFTFGPGTKVDIK
B11: 01F05 C01 (antibody, V domains shown)
VH: QVQLVQSGAEVKKPGASVKVSCKASGYTFTAYYIHWVRQAPGQGLEWMGWINPNSGGTNYAQMFQGRVTMTRDTSISAAYMELSRLSSDDTAVYYCTRGTPRYNWKSYNYGMDVWGQGTTVTVSS
VL: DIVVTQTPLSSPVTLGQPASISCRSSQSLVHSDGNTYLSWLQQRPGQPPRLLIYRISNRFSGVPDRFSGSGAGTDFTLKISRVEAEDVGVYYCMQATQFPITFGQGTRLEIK
B12: OKT3 (antibody, V domains shown)
VH: QVQLVQSGGGVVQPGRSLRLSCKASGYTFTRYTMHWVRQAPGKGLEWIGYINPSRGYTNYNQKFKDRFTISRDNSKNTAFLQMDSLRPEDTGVYFCARYYDDHYCLDYWGQGTPVTVSS
VL: DIQMTQSPSSLSASVGDRVTITCSASSSVSYMNWYQQTPGKAPKRWIYDTSKLASGVPSRFSGSGSGTDYTFTISSLQPEDIATYYCQQWSSNPFTFGQGTKLQITR
B13: 12C08 (antibody, V domains shown)
VH: B3 VH with V2E, R9G, L20F, A23E, A24V, S30R, Y107Q
VL: B4 VL
B14: 13E03 (antibody, V domains shown)
VH: B3 VH with V2I, R9G, A40T, Y60H, F68Y, N84S, E89D, L113V, V116A
VL: B4 VL with F14S, S31R, S65G, I106V

Numbering of substitutions follows the chain as printed.

The target in one assay is T1, human CD3ε on the cell surface (Jurkat cells, Th1 cells) (UniProt P07766 23-207). The assay is described as follows: FACS Jurkat.
What is called EC50 is the concentration giving half of the maximal effect. Low readings indicate greater potency, high ones weaker potency. As for B1, the EC50 is 0.68 nM.

On to B2, for which the EC50 is 0.59 nM.

As for B3, the EC50 came out at 36 nM.

B4 registered an EC50 of 34 nM.

B5 displayed an EC50 of 20 nM.

In turn, B6 came in with an EC50 of 25 nM.

B7 showed an EC50 of 27 nM.

As for B8, the EC50 amounted to 48 nM.

Consider B9, for which the concentration for a half-maximal effect (EC50) turned out to be 35 nM.

B10: the EC50 was 23 nM.

Consider B11, for which the midpoint of the response, the EC50, lay at 1.3 nM.

The target of the next assay is T2, Jurkat (UniProt P07766 23-207). The assay is described as follows: FACS Jurkat.
Take B12: the EC50 was determined as 0.55 nM.

For a further assay, the target named is T1, human CD3ε on the cell surface (Jurkat …). Description: FACS Jurkat. The source holds these as a separate data set.
In the case of B1, it took 0.68 nM to reach a half-maximal effect (EC50).

For the molecule B2, a half-maximal response (EC50) required 0.59 nM.

On to B3, for which the EC50 is 36 nM.

Consider B4, for which it took 34 nM to reach a half-maximal effect (EC50).

As to B5, it took 20 nM to reach a half-maximal effect (EC50).

Turning to B6, the EC50 came to 25 nM.

Take B7: the EC50 worked out at 27 nM.

In turn, B8 yielded a half-maximal effective concentration (EC50) of 48 nM.

B9 showed an EC50 of 35 nM.

In the case of B10, the 50% effective concentration (EC50) came to 23 nM.

With B11, it took 1.3 nM to reach a half-maximal effect (EC50).

Another assay addresses CD3ε/δ heterodimer. Description: sensorgram.
By koff is commonly meant the first-order rate constant of dissociation. A low value points to slow dissociation. In the case of B13, the koff was determined as 0.000334 s⁻¹.

As to B14, the off-rate constant (koff) came out at 0.00198 s⁻¹.

The next assay concerns the target T2, Jurkat. Description: FACS Jurkat. This is another data set of the same source.
Turning to B12, the EC50 worked out at 0.55 nM.
